Where two headings read alike, the source gives them in different places.

The record followed here is patent US20220033460A1, “IDENTIFICATION AND USE OF T CELL EPITOPES IN DESIGNING DIAGNOSTIC AND THERAPEUTIC APPROACHES FOR COVID-19” (priority 2020, published 2022).

Assay [1] deals with DRB1*15:01. The conditions noted are these: modification not given.
For assay [2], the target named is DRB01*15:01. The conditions noted are these: modification not given.
The target in assay [3] is DRB1*07:01. Particulars: modification not given.
Assay [4] addresses DRB1*15:01. Particulars: modification not given. The source holds these as a separate data set.
Assay [5] concerns the target DRB1*07:01. The conditions noted are these: modification not given. This is another data set of the same source.
The target in assay [6] is DRB1*15:01. Particulars: modification not given. The source holds these as a separate data set.
Assay [7] addresses SARS-CoV-2 peptide on HLA-A*24:02 (human). The assay is described as follows: barcoded tetramer library on ex vivo CD8+ T cells, single-cell sequencing; T cell clone or line. Particulars: chains Valpha:Vbeta.
Assay [8] has as its target DRB1*15:01. Particulars: modification not given. The source holds these as a separate data set.
Assay [9] has as its target DRB1*07:01. Particulars: modification not given. This is another data set of the same source.
The target in assay [10] is DRB1*15:01. The conditions noted are these: modification not given. This is another data set of the same source.
In assay [11] the target is DRB1*07:01. Particulars: modification not given. This is another data set of the same source.
Assay [12] has as its target DRB1*15:01. Particulars: modification not given. This is another data set of the same source.
The target in assay [13] is DRB1*07:01. Particulars: modification not given. The source holds these as a separate data set.
A further assay concerns the target DRB01*11:01. The conditions noted are these: chains peptide; modification not given.
For a further assay, the target named is DRB01*04:04. The conditions noted are these: chains peptide; modification not given.
The next assay concerns the target DRB01*07:01. The conditions noted are these: chains peptide; modification not given.
Assay [14] deals with DRB01*15:01. The conditions noted are these: chains peptide; modification not given.
Assay [15] deals with DRB1*07:01. Particulars: modification not given. This is another data set of the same source.
Assay [16] concerns the target DRB1*07:01. Particulars: modification not given. The source holds these as a separate data set.
Assay [17] concerns the target DRB1*15:01. Particulars: modification not given. This is another data set of the same source.
For assay [18], the target named is DRB1*07:01. The conditions noted are these: modification not given. This is another data set of the same source.
Assay [19] deals with DRB1*07:01. Particulars: modification not given. The source holds these as a separate data set.
Assay [20] deals with DRB1*15:01. The conditions noted are these: modification not given. The source holds these as a separate data set.
For assay [21], the target named is DRB1*07:01. The conditions noted are these: modification not given. This is another data set of the same source.
Assay [22] has as its target DRB1*15:01. Particulars: modification not given. The source holds these as a separate data set.
Assay [23] deals with DRB1*07:01. The conditions noted are these: modification not given. This is another data set of the same source.
In assay [24] the target is DRB1*07:01. The conditions noted are these: modification not given. This is another data set of the same source.
Assay [25] concerns the target DRB1*15:01. Particulars: modification not given. The source holds these as a separate data set.
Assay [26] has as its target DRB1*07:01. Particulars: modification not given. This is another data set of the same source.
Assay [27] deals with DRB1*15:01. Particulars: modification not given. The source holds these as a separate data set.
Assay [28] concerns the target DRB1*07:01. Particulars: modification not given. The source holds these as a separate data set.
Assay [29] deals with DRB1*15:01. The conditions noted are these: modification not given. The source holds these as a separate data set.
Assay [30] concerns the target DRB1*15:01. The conditions noted are these: modification not given. This is another data set of the same source.
The target of assay [31] is DRB1*07:01. Particulars: modification not given. The source holds these as a separate data set.

Turning to PLSETKCTLKSFTVE [… (position 295)], the IC50 – broadly, the concentration that gives 50% inhibition – with DRB1*15:01 [1] worked out at 15500 nM.
On to TLLALHRSYLTPGDS [Positive Control …], for which the IC50 with DRB01*15:01 [2] came to 257 nM.
As for NSPRRARSVASQSII [… (position 679)], the IC50 with DRB1*07:01 [3] turned out to be 206 nM; with DRB1*15:01 [4], 25500 nM.
NFRVQPTESIVRFPN [… (position 317)]: the IC50 turned out to be 1620 nM in the assay with DRB1*07:01 [5] and 1020 nM in the assay with DRB1*15:01 [6].

B1: TCR_101 (protein)
chain 1: EDQVTQSPEALRLQEGESSSLNCSYTVSGLRGLFWYRQDPGKGPEFLFTLYSAGEEKEKERLKATLTKKESFLHITAPKPEDSATYLCAVHLNDYKLSFGAGTTVTVRA
chain 2: NAGVMQNPRHLVRRRGQEARLRCSPVKGHSHVYWYRQLPEEGLKFMVYLQKENIIDESGMPKERFSAEFPKEGPSILRIQQVVRGDSAAYFCASSRPSGQGNNGYTFGSGTRLTVV
B1: the No. of Cells in assay [7] was 2 cells.
On to KLPDDFTGCVIAWNS [… (position 424)], for which, in the assay with DRB1*15:01 [8], the IC50 turned out to be 2060 nM.
For the molecule NVVIKVCEFQFCNDP [… (position 125)], the IC50 with DRB1*07:01 [9] turned out to be 6610 nM.
The molecule TSVDCTMYICGDSTE [… (position 734)] had an IC50 with DRB1*15:01 [10] of 36700 nM. This lies in the double-digit micromolar range.
Take TWRVYSTGSNVFQTR [… (position 632)]: the IC50 with DRB1*07:01 [11] was 220 nM; with DRB1*15:01 [12], 1950 nM.

B2: TCR_76 (protein)
chain 1: QQQVKQSPQSLIVQKGGISIINCAYENTAFDYFPWYQQFPGKGPALLIAIRPDVSEKKEGRFTISFNKSAKQFSLHIMDSQPGDSATYFCAASNRGGSEKLVFGKGTKLTVNP
chain 2: NAGVTQTPKFQVLKTGQSMTLQCAQDMNHEYMSWYRQDPGMGLRLIHYSVGAGITDQGEVPNGYNVSRSTTEDFPLRLLSAAPSQTSVYFCASSYHAGDRGFGYTFGSGTRLTVV
For the molecule B2, in assay [7], the No. of Cells amounted to 2 cells.
TLLALHRSYLTPGDS [… (position 240)] had an IC50 in the assay with DRB1*07:01 [13] of 298 nM.
As to RGHLRIAGHHLGRCDIKDLPKEI [SEQ ID NO 307], the IC50 amounted to 561 nM with DRB01*11:01, 1730 nM with DRB01*04:04, 10200 nM in the assay with DRB01*07:01 and 5090 nM in the assay with DRB01*15:01 [14].
For the molecule PFAMQMAYRFNGIGV [… (position 897)], the IC50 in the assay with DRB1*07:01 [15] came out at 158 nM.
With GVYFASTEKSNIIRG [… (position 89)], the IC50 was found to be 99 nM with DRB1*07:01 [16] and 15500 nM with DRB1*15:01 [17].
PLVSSQCVNLTTRTQ [… (position 9)] showed an IC50 with DRB1*07:01 [18] of 838 nM.
TFEYVSQPFLMDLEG [… (position 167)]: the IC50 in the assay with DRB1*07:01 [19] is 442 nM; with DRB1*15:01 [20], 7660 nM.
In the case of KKFLPFQQFGRDIAD [… (position 557)], the IC50 in the assay with DRB1*07:01 [21] stood at 1630 nM; in the assay with DRB1*15:01 [22], 6440 nM.
Take PAYTNSFTRGVYYPD [… (position 26)]: in the assay with DRB1*07:01 [23], the IC50 was determined as 153 nM.
TVEKGIYQTSNFRVQ [… (position 307)]: the IC50 amounted to 316 nM in the assay with DRB1*07:01 [24] and 378 nM in the assay with DRB1*15:01 [25].
Turning to DSLSSTASALGKLQD [… (position 936)], the IC50 with DRB1*07:01 [26] turned out to be 1020 nM; with DRB1*15:01 [27] it was 10900 nM.
Regarding FRSSVLHSTQDLFLP [… (position 43)], the IC50 with DRB1*07:01 [28] was found to be 85 nM; with DRB1*15:01 [29], 5570 nM.
As to QKFNGLTVLPPLLTD [… (position 853)], in the assay with DRB1*15:01 [30], the IC50 amounted to 1710 nM.

B3: TCR_109 (protein)
chain 1: AQKITQTQPGMFVQEKEAVTLDCTYDTSDQSYGLFWYKQPSSGEMIFLIYQGSYDEQNATEGRYSLNFQKARKSANLVISASQLGDSAMYFCAMRDSNSNSGYALNFGKGTSLLVTP
chain 2: DAEITQSPRHKITETGRQVTLACHQTWNHNNMFWYRQDLGHGLRLIHYSYGVQDTNKGEVSDGYSVSRSNTEDLPLTLESAASSQTSVYFCASSDGHQGLQETQYFGPGTRLLVL
In [7], B3 displayed a No. of Cells of 2 cells.
For ASQSIIAYTMSLGAE [… (position 688)], the IC50 with DRB1*07:01 [31] is 124 nM.
